The DeepSol protein solubility set

Assay: soluble on expression in E. coli; label from the status in PepcDB or PDB records

Soluble on expression in E. coli, not soluble:
MGSDKIHHHHHHMKKTYVLDTNVLLHDPMALFRFEDNDLVIPITVIEEIDRFKKDLNERGRNARQISRLLDGFRSKGHLIEGITLDHGGKLRVVMLEKTFLEQLPSGLIANANDNAILAVALALQQQNGQPTILVTKDTNLRIKADATGLCAEDYESDKIDFSELYSGTAEVYLAPDQLQVFRREGGLDLSGEFFPNQALTLVDETNLSHTLLGRYRASDRRVVPLIQPPKMGISRIHARNREQQFALDLLLDDNIQLVTLVGKAGTGKTLLAVAAGLHKVADERHFSRLLVSRPIFPMGRDLGFLPGDLQEKLAPWMQPIIDNLDFILGGANNNGDRPSNKQQNYQDLMGMNLLQIEPLTYIRGRSIPRQFMIVDEAQNLTPHEIKTILTRAGEGTKIVLTGDAYQIDNPYVDASSNGLTYVVEKFKNEAIAGHITLERGERSPLAELSANLL, MGSDKIHHHHHHMKKVAIVQSNYIPWKGYFDMIAAVDEFILYDDMQYTRRDWRNRNQIKTPQGVQWLTVPVLVKGKYHQKIRETEIDGTDWAAAHWKALVQNYRRSPHFTEIAAWLEPLYLAETFTHISQLNRRFIEAICNYLGIKTVIKNSWDYTLLDGKTERLADLCVQAGGTEYISGPAAKDYVDEQVFKENGIKLTWFDYIGYPEYQQLWGEFTHGVTILDLLLNCGKNAKRYMKYVE, MGSDKIHHHHHHMKKYYIYILTAVLPILWGACNNGDDIDTKHSIFSTEPMEHNGFDEWLLANYTYPYNVDFKYRMQDIESDHKYNLVPADYDKSVALAKIIKHVWMEAYTELAGPAFLRSYVPKTFHLIGSPAYDSSGTKVLGTAEGGKKITLYEVNSLDFENVDIEVLNEYYFKTMHHEFAHILHQKRNYDPSFDRITEGKYVGSDWYFYVAENGNSYLREDADAWPEGFVTAYAMSEAREDFVENIAMYVTHDQAYWDNMLKVAGTAGAAIINQKFTIVYNYMLETWGINLDDLREIVLRRQQEIPELDLSTIE, MGSDKIHHHHHHMKLDPKLAQDIVNKMMTQIPYNVNMMDDQGYIIASGDPQRLNTLHVGAVAAINQQTTLPMHDSYGDHGQPGVNMPIVFNDQIIGVIGITGDPEKVTPLASLLRVATELLLDQNQHNLQEKQYETTLNRFLYHWSQVTQQIDTNTNLLLEAQQLGIDILKPRAAIVLPKQTLPIGLLDATDFQFDLDTTTLIVLTALPATIARFTTYCQTGQHRLGIGLFDRNVGNSVRQARQTLRISQIFQRPDFIHYSQIAFIQALLDGHLHVTDLQQRFQKLASTANGRELIKTLGMFVRLNTNVLQTAAALHIHRNTLSYRLDRLQQIFQLDPHQTLDLFTLYVGYLYFKADK, MGSDKIHHHHHHMKLFTSCKESVKNSIDTKYFSIAHLHSEEETMSIHIHDCYEIYYSISGENQFLIDNKLYYINPGNLFAVNEFESHYVSQVNNSTHERIVISIHPDFLKSLCTSKTNLTYCFKHRGSNFCHKVSLNKEQQSRFMYFINKIIGSHGFGADMIEYASFIELMIFLTSLFINNGESLTPIYKYSNQIEEIIRYINDNVTNDITVKHLAEHFFLSESYICRIFKLSTGTTINKYITARRISMAKALLSNGSSINDVYVKCGFNDYSNFLKSFKKAVGISPKKYSTFSTS, MGSDKIHHHHHHMKLISVRRIWEQAAHNAFTDLIAFQEALFCVFREGTAHVSPDGALRILRSVDGGETWQSVALIRSDEADLRDGKLIEYQGELLLLGGGTLHNKSGLQSHLWRSADGRVWSDALKIADKGYWLWRLTEHQNTLYGVGYRPGPDGDTRLYKSEDGVQFKTWLKVFNNQGYVNETAIVFDQDSGFCLLRRDPVWGPEFFGLLGHSRAPFTDWQWQELDKRIGGPVMLMYQSRLLAVVRLYDEQVRTALVEIHSDTGVVQELLTLPSKGDTSYAGVVIDGNELWVSYYSSHELADSQLDTQNSLDESSRAGKAKTMIYFAKILLS, MGSDKIHHHHHHMKLLDHKLSLLEITDEEKSDEIILNLSRNVKKDLEDIVVANVSMENVLVMNIKVPPTLNKQNAVEYATMEISRNLGILPEQLVVAPLDIRGGEGLFFVSKVDQVKSFVTDLMKKEFPETDVVIPDIVKYLEVFEFYFGKRLKGTSVLTVISFLSDYYSIVVLENNHYRSLRLLFSMFWDYMDIVVENTGIQPKELIEGTVNVDLSFLQPYFGDFLIELDREVKVSLDEVNLSRVNQFFYIVDPPIFSPVLSQSLEKFEGVALKQGIVPSFKPGISLGTLGLMIRGGREIGKVKHLSV
